Data taken from publication PMC9288159, “Identification of a guanine-specific pocket in the protein N of SARS-CoV-2”.

Target: SARS-CoV-2 N protein C-terminal domain (NCTD) (SARS-CoV-2, UniProt P0DTC9 256-364)
Experiment: EMSA; […]; binding buffer not stated ([…]
Settings: protein: recombinant; tags: N-terminal His6-TEV site (pET28a); chain copies: 2; label: 5' IRDye-800CW

For CGGUUUCUCCG (ssRNA) [Oligo-U (SL5a G to U)], the Kd was 140 ± 29 nM.
